{"source": "patent US20150307585A1", "about": "(published 2015)", "key": {"[1]": {"target": "T1, RAC1 P29S (Ras-related C3 botulinum toxin substrate 1) peptide on HLA-A*02:01 (human)", "T1 peptide": "FSGEYIPTV", "experiment": "multimer staining"}, "[2]": {"target": "T1, RAC1 P29S (Ras-related C3 botulinum …)", "experiment": "cytokine release"}}}
{"binder": "T3/T4, chain combination TRAV5/TRBV20-1 (TCR, V domains shown) Valpha: GEDVEQSLFLSVREGDSSVINCTYTDSSSTYLYWYKQEPGAGLQLLTYIFSNMDMKQDQRLTVLLNKKDKHLSLRIADTQTGDSAIYFCAESKRFSDGQKLLFARGTMLKVDL Vbeta: GAVVSQHPSWVICKSGTSVKIECRSLDFQATTMFWYRQFPKQSLMLMATSNEGSKATYEQGVEKDKFLINHASLTLSTLTVTSAHPEDSSFYICSARDLITDTQYFGPGTRLTVL", "values": [{"measurement": "binding result", "setting": "[1]", "value": "recognises"}]}
{"binder": "T6 (TCR, V domains shown) Valpha: GESVGLHLPTLSVQEGDNSIINCAYSNSASDYFIWYKQESGKGPQFIIDIRSNMDKRQGQRVTVLLNKTVKHLSLQIAATQPGDSAVYFCAENRGANSKLTFGKGITLSVRP Vbeta: DAGVIQSPRHEVTEMGQEVTLRCKPISGHNSLFWYRQTMMRGLELLIYFNNNVPIDDSGMPEDRFSAKMPNASFSTLKIQPSEPRDSAVYFCASSFTGGFYGYTFGSGTRLTVV", "values": [{"measurement": "binding result", "setting": "[1]", "value": "recognises"}]}
{"binder": "T1 (TCR, V domains shown) Valpha: EDQVTQSPEALRLQEGESSSLNCSYTVSGLRGLFWYRQDPGKGPEFLFTLYSAGEEKEKERLKATLTKKESFLHITAPKPEDSATYLCAVQTSQGGSEKLVFGKGTKLTVNP Vbeta: DTEVTQTPKHLVMGMTNKKSLKCEQHMGHRAMYWYKQKAKKPPELMFVYSYEKLSINESVPSRFSPECPNSSLLNLHLHALQPEDSALYLCASSQDASGIYYEQYFGPGTRLTVT", "values": [{"measurement": "binding result", "setting": "[2]", "value": "recognises"}]}
{"binder": "T2 (TCR, V domains shown) Valpha: GENVEQHPSTLSVQEGDSAVIKCTYSDSASNYFPWYKQELGKGPQLIIDIRSNVGEKKDQRIAVTLNKTAKHFSLHITETQPEDSAVYFCAASRGGAQKLVFGQGTRLTINP Vbeta: DTAVSQTPKYLVTQMGNDKSIKCEQNLGHDTMYWYKQDSKKFLKIMFSYNNKELIINETVPNRFSPKSPDKAHLNLHINSLELGDSAVYFCASSQLAGGPLYNEQFFGPGTRLTVL", "values": [{"measurement": "binding result", "setting": "[2]", "value": "recognises"}]}
{"binder": "T5 (TCR, V domains shown) Valpha: GENVEQHPSTLSVQEGDSAVIKCTYSDSASNYFPWYKQELGKGPQLIIDIRSNVGEKKDQRIAVTLNKTAKHFSLHITETQPEDSAVYFCAASLGSGNTPLVFGKGTRLSVIA Vbeta: DVKVTQSSRYLVKRTGEKVFLECVQDMDHENMFWYRQDPGLGLRLIYFSYDVKMKEKGDIPEGYSVSREKKERFSLILESASTNQTSMYLCASSLHSGRDTQYFGPGTRLTVL", "values": [{"measurement": "binding result", "setting": "[1]", "value": "recognises"}]}
